Data: paper PMC2914249, “Structure and Reactivity of Bacillus subtilis MenD Catalyzing the First Committed Step in Menaquinone Biosynthesis” (Journal of Molecular Biology, 2010)

How the values were obtained:
purified protein [1] = substrate: O=C(O)CCC(=O)C(=O)O; assay: purified protein; format: biochemical, Bacillus subtilis; details: 50 mM Tris-HCl pH 7.8, 20 mM NaCl, 5 mM MgSO4, 23 °C, co-substrate isochorismate
purified protein [2] = substrate: C=C(O[C@H]1C=CC=C(C(=O)O)[C@@H]1O)C(=O)O; assay: purified protein; format: biochemical, Bacillus subtilis; details: 50 mM Tris-HCl pH 7.8, 20 mM NaCl, 5 mM MgSO4, 23 °C, co-substrate α-ketoglutarate

Row | Protein | Km (purified protein [1]) [µM] | Km (purified protein [2]) [µM] | kcat (purified protein [2]) [s⁻¹] | kcat/Km (purified protein [2]) [M⁻¹ s⁻¹]
1 | BsMenD (MenD, SEPHCHC synthase, EC 2.2.1.9) (Bacillus subtilis subsp. subtilis str. 168; I489A) (protein, full length (Thr2-Leu580 seen in crystal); N-terminal hexa-His tag with TEV site kept (24 extra residues); E. coli BL21(DE3); dimer peak used (tetramer in crystal); active site formed by two subunits) MTVNPITHYIGSFIDEFALSGITDAVVCPGSRSTPLAVLCAAHPDISVHVQIDERSAGFFALGLAKAKQRPVLLICTSGTAAANFYPAVVEAHYSRVPIIVLTADRPHELREVGAPQAINQHFLFGNFVKFFTDSALPEESPQMLRYIRTLASRAAGEAQKRPMGPVHVNVPLREPLMPDLSDEPFGRMRTGRHVSVKTGTQSVDRESLSDVAEMLAEAEKGMIVCGELHSDADKENIIALSKALQYPILADPLSNLRNGVHDKSTVIDAYDSFLKDDELKRKLRPDVVIRFGPMPVSKPVFLWLKDDPTIQQIVIDEDGGWRDPTQASAHMIHCNASVFAEEIMAGLTAATRSSEWLEKWQFVNGRFREHLQTISSEDVSFEGNLYRILQHLVPENSSLFVGNSMPIRDVDTFFEKQDRPFRIYSNRGANGIDGVVSSAMGVCEGTKAPVTLVIGDLSFYHDLNGLLAAKKLGIPLTVILVNNDGGGAFSFLPQASEKTHFEDLFGTPTGLDFKHAAALYGGTYSCPASWDEFKTAYAPQADKPGLHLIEIKTDRQSRVQLHRDMLNEAVREVKKQWEL | 346 ± 10 | 27 ± 1 | 0.095 ± 0.00333 | 3500 ± 167
2 | BsMenD (MenD, SEPHCHC synthase, EC 2.2.1.9) (Bacillus subtilis subsp. subtilis str. 168; R32A) (protein, full length (Thr2-Leu580 seen in crystal); N-terminal hexa-His tag with TEV site kept (24 extra residues); E. coli BL21(DE3); dimer peak used (tetramer in crystal); active site formed by two subunits) MTVNPITHYIGSFIDEFALSGITDAVVCPGSASTPLAVLCAAHPDISVHVQIDERSAGFFALGLAKAKQRPVLLICTSGTAAANFYPAVVEAHYSRVPIIVLTADRPHELREVGAPQAINQHFLFGNFVKFFTDSALPEESPQMLRYIRTLASRAAGEAQKRPMGPVHVNVPLREPLMPDLSDEPFGRMRTGRHVSVKTGTQSVDRESLSDVAEMLAEAEKGMIVCGELHSDADKENIIALSKALQYPILADPLSNLRNGVHDKSTVIDAYDSFLKDDELKRKLRPDVVIRFGPMPVSKPVFLWLKDDPTIQQIVIDEDGGWRDPTQASAHMIHCNASVFAEEIMAGLTAATRSSEWLEKWQFVNGRFREHLQTISSEDVSFEGNLYRILQHLVPENSSLFVGNSMPIRDVDTFFEKQDRPFRIYSNRGANGIDGVVSSAMGVCEGTKAPVTLVIGDLSFYHDLNGLLAAKKLGIPLTVILVNNDGGGIFSFLPQASEKTHFEDLFGTPTGLDFKHAAALYGGTYSCPASWDEFKTAYAPQADKPGLHLIEIKTDRQSRVQLHRDMLNEAVREVKKQWEL |  | 49 ± 7 | 0.183 ± 0.0167 | 3670 ± 167
3 | BsMenD (MenD, SEPHCHC synthase, EC 2.2.1.9) (Bacillus subtilis subsp. subtilis str. 168; R106A) (protein, full length (Thr2-Leu580 seen in crystal); N-terminal hexa-His tag with TEV site kept (24 extra residues); E. coli BL21(DE3); dimer peak used (tetramer in crystal); active site formed by two subunits) MTVNPITHYIGSFIDEFALSGITDAVVCPGSRSTPLAVLCAAHPDISVHVQIDERSAGFFALGLAKAKQRPVLLICTSGTAAANFYPAVVEAHYSRVPIIVLTADAPHELREVGAPQAINQHFLFGNFVKFFTDSALPEESPQMLRYIRTLASRAAGEAQKRPMGPVHVNVPLREPLMPDLSDEPFGRMRTGRHVSVKTGTQSVDRESLSDVAEMLAEAEKGMIVCGELHSDADKENIIALSKALQYPILADPLSNLRNGVHDKSTVIDAYDSFLKDDELKRKLRPDVVIRFGPMPVSKPVFLWLKDDPTIQQIVIDEDGGWRDPTQASAHMIHCNASVFAEEIMAGLTAATRSSEWLEKWQFVNGRFREHLQTISSEDVSFEGNLYRILQHLVPENSSLFVGNSMPIRDVDTFFEKQDRPFRIYSNRGANGIDGVVSSAMGVCEGTKAPVTLVIGDLSFYHDLNGLLAAKKLGIPLTVILVNNDGGGIFSFLPQASEKTHFEDLFGTPTGLDFKHAAALYGGTYSCPASWDEFKTAYAPQADKPGLHLIEIKTDRQSRVQLHRDMLNEAVREVKKQWEL |  | 41 ± 4 | 0.0117 ± 0.00333 | 300 ± 167
4 | BsMenD (MenD, SEPHCHC synthase, EC 2.2.1.9) (Bacillus subtilis subsp. subtilis str. 168; K299A) (protein, full length (Thr2-Leu580 seen in crystal); N-terminal hexa-His tag with TEV site kept (24 extra residues); E. coli BL21(DE3); dimer peak used (tetramer in crystal); active site formed by two subunits) MTVNPITHYIGSFIDEFALSGITDAVVCPGSRSTPLAVLCAAHPDISVHVQIDERSAGFFALGLAKAKQRPVLLICTSGTAAANFYPAVVEAHYSRVPIIVLTADRPHELREVGAPQAINQHFLFGNFVKFFTDSALPEESPQMLRYIRTLASRAAGEAQKRPMGPVHVNVPLREPLMPDLSDEPFGRMRTGRHVSVKTGTQSVDRESLSDVAEMLAEAEKGMIVCGELHSDADKENIIALSKALQYPILADPLSNLRNGVHDKSTVIDAYDSFLKDDELKRKLRPDVVIRFGPMPVSAPVFLWLKDDPTIQQIVIDEDGGWRDPTQASAHMIHCNASVFAEEIMAGLTAATRSSEWLEKWQFVNGRFREHLQTISSEDVSFEGNLYRILQHLVPENSSLFVGNSMPIRDVDTFFEKQDRPFRIYSNRGANGIDGVVSSAMGVCEGTKAPVTLVIGDLSFYHDLNGLLAAKKLGIPLTVILVNNDGGGIFSFLPQASEKTHFEDLFGTPTGLDFKHAAALYGGTYSCPASWDEFKTAYAPQADKPGLHLIEIKTDRQSRVQLHRDMLNEAVREVKKQWEL |  | 8.4 ± 1.2 | 0.417 ± 0.0333 | 50000 ± 5000
